From the supplement of paper PMC12042874
± gives the uncertainty stated by the source.

Test: amyloid nucleation score (Sup35N fusion, yeast selection) (log enrichment); library NNK1; higher = more nucleation; inactive = no reads after selection
In short: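 Using DiMSum, nucleation scores were taken as the log enrichment of output over input reads, centred on the mode score of non-aggregating sequences. The input and output reads came from Illumina sequencing of plasmid inserts, with sequences under 100 input reads excluded. The yeast were psi-negative, expressed Sup35N fused to peptides of 20 random codons, were induced with 100 μM copper sulfate for 24 hours, and were grown 7 days at 30°C on medium lacking adenine and uracil.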

Row | Substance | amyloid nucleation score
1 | MTYTSWMMNRFNITNSYNLV | 0.755 ± 0.97
2 | GGPQLKVCSFGLFWWFIEVV | inactive
3 | GLRLNITNSRGRPRETWRGR | 2.33 ± 0.24
4 | TFWYLLNCVSRLFNF | -0.013 ± 0.57
5 | VYRTNLSINSTFIWTHELRS | 0.525 ± 0.18
6 | VLKTWVIDNKSVGEMCNLNG | 0.556 ± 0.85
7 | VVAVE | -0.27 ± 0.38
8 | DFFLIFWWDSFSAGVCQMNS | 0.356 ± 0.51
9 | FYEIY | 0.021 ± 0.93
10 | SSFCRLLNIMYSRWGGLGTY | inactive
11 | CVCLSVARLDYADIFVWTFM | 2.28 ± 0.13
12 | IVVGRC | 0.144 ± 0.39
13 | TEKTVRCDLTWQTHLLLCFA | -0.369 ± 0.83
14 | FRSSFGMTHYWEWRASSGRN | 0.882 ± 0.2
15 | YNQISLD | -0.38 ± 1.1
16 | PSLLWAFTLS | 0.5 ± 0.42
17 | YSVGFTCRMVTLSASWYWLW | 0.136 ± 0.32
18 | WLLVNMDDYLAGYCITHFRN | -0.359 ± 0.58
19 | KVNTLCEHSSIHRPVVGNGG | 0.082 ± 0.77
20 | RLKGSPHVLL | -1.69 ± 1.2
21 | VCYSLSLNISFSFRNVVVRS | 0.899 ± 0.58
22 | PEAPPLLIVSGFN | 1.2 ± 0.79
23 | GMSALYSGDVL | -0.118 ± 0.57
24 | IYNRKTYFMTTSATVVFAVP | 0.696 ± 0.4
25 | LKIEPRC | -0.512 ± 0.4

Row | Substance | amyloid nucleation score
26 | FRVSSFWYWYVHLQGYYGTV | 1.01 ± 0.8
27 | YDEGHS | -0.778 ± 1.2
28 | IFDYSTLECESDEGEAEGMS | 0.572 ± 0.81
29 | ETAEMIAVPDRAHF | 1.05 ± 0.57
30 | ASHFELYRLRKGLMCSVVSI | inactive
31 | FKDGLCYCNSGVS | -0.452 ± 0.39
32 | RFRSCSYLVNRSSMLAATDG | inactive
33 | SKWYSDQT | inactive
34 | IVIAVMSGSYVSLKSWFLRH | -1.5 ± 1.3
35 | DYSNERLTDGLRMGGTRVSG | 0.251 ± 0.54
36 | MLNVEGNTLKSWIYGRHLVP | 0.097 ± 0.69
37 | VMGVLYSRADSVVEIGLLRV | -0.972 ± 1
38 | YQQPEDCMFECTVVYSSKSR | -0.062 ± 0.26
39 | MCLTRSSLEVRQVTIVMWSG | 0.387 ± 0.52
40 | GTVYWIYGGINLSAVLSSRS | 3.44 ± 0.1
41 | VPTYGFGLEIFKDFSMNR | -0.926 ± 0.44
42 | VNFYDLVL | 0.318 ± 0.46
43 | ILEYWSISKKPYMIVMGGRV | 0.15 ± 0.34
44 | SCLLTMSLE | 0.11 ± 0.43
45 | LGAMRLFTRSLFLADWKYDV | -0.04 ± 0.45
46 | SSSVCPLHSADSCVSGISAD | 1.73 ± 0.64
47 | GGGEATLREFFKECGK | -0.603 ± 0.35
48 | NTAFSERTWLVRFKMVPRWK | 0.647 ± 0.83
49 | LTVGYSRYIPVRYGF | -1.08 ± 0.43
50 | QVALYKVVVYKTWDVGFPSC | 0.988 ± 0.9

Row | Substance | amyloid nucleation score
51 | HFQKYKELVVSKHN | 0.743 ± 1.1
52 | LALVDAHK | -1.02 ± 1
53 | VWTSWDGRSLIAEWVCYLE | 6.232 ± 0.048
54 | AICWPVILSTDLTQTYLAWT | -0.247 ± 0.3
55 | VLWSCDAMWWVRIKSTYVWN | 0.495 ± 1.2
56 | SWIRNRWHYTQ | -0.141 ± 0.72
57 | DSFVRT | inactive
58 | ASLLSGQK | 0.358 ± 1.1
59 | VSFIYFRVWILAMDY | 0.842 ± 0.37
60 | VAEAFTIGWGGNESSSVRSS | -0.348 ± 0.52
61 | MIIRLVLVGSSYKNVPSAEG | 0.137 ± 0.49
62 | YGLMVVVKVS | 6.666 ± 0.043
63 | ILTVLLISMWVMNHLIFLGL | -0.563 ± 1.4
64 | KRFSKDLLMAESDLCIGCMM | -0.817 ± 2.4
65 | LSTPYHQWLLAGRSRWASRK | 0.609 ± 0.49
66 | DVREITCLSHKRTRHQVHPV | 0.07 ± 1.2
67 | SLLMRIS | -0.434 ± 0.61
68 | AISVGVFRVWC | 3.53 ± 0.09
69 | THCCSRYTPERVC | 0.47 ± 0.4
70 | SVLIRALFTFKLRSVERQDY | 3.82 ± 0.069
71 | NSYLSND | inactive
72 | NDDTLRSTKVIEHLFP | 0.698 ± 1.2
73 | ISTPKDISSPKSFWNIFFGT | 4.65 ± 0.069
74 | DIIVFSVLFLVTLDGDLWC | 0.476 ± 0.97
75 | VRHCTQINSPFYYDFN | -0.318 ± 0.3

Row | Substance | amyloid nucleation score
76 | FFLAV | -0.158 ± 0.64
77 | PQQEGISLSDALPLPEEGRV | 0.535 ± 0.4
78 | VRSLAFTNVYFEEGAYVANT | -0.532 ± 0.73
79 | VYITVFMIAYMLLSDTDHE | 0.377 ± 0.31
80 | GGVFMMSSDSTQIIRYVKSR | 0.752 ± 0.56
81 | FMELEELCSCNERGLLWTPA | 1.6 ± 0.27
82 | RRPASFLFFTYPILLQVFTF | -1.22 ± 2.1
83 | MRRCTGMLCYTIS | 0.97 ± 0.53
84 | YAFARCLTHINVVALIVRMC | -1.18 ± 0.64
85 | FPDGEYPMTYTLWELKYVFV | -0.487 ± 0.65
86 | EKHEVVCIVKTVR | 0.424 ± 0.85
87 | SVVIFHHTICLERDAVRQKF | 5.02 ± 0.083
88 | SLGPFRDVSCYVVAGIQTVN | -1.66 ± 2.7
89 | PKGIGGGCARTYRHRVRGSR | 0.184 ± 0.64
90 | MKDSGCPSGNNTALEGASLI | 0.269 ± 0.49
91 | SSVCFGYRAIGTIRHMFSKC | 0.311 ± 0.33
92 | HQVVNNGTWGEQYIWMLSAC | 0.442 ± 0.46
93 | YASTSMWVP | -0.401 ± 0.35
94 | SWMCSPRACCLLTFNFECMC | -0.635 ± 0.5
95 | ADCPLCGTYNLSYCMVRLDI | 0.349 ± 0.28
96 | LQSFVLLGDRIYRRFCVLMN | 0.048 ± 1.2
97 | QGIYTD | -0.921 ± 0.78
98 | GWCNMGGANVWKMQVTGPAE | 0.948 ± 0.58
99 | PSALGMVNGYIRVIYKRR | 0.359 ± 0.53
100 | SLYFFLFRCVCKRLYSGWNV | -0.481 ± 1

Row | Substance | amyloid nucleation score
101 | MYKAEICLMSLENRPLMLPF | 0.203 ± 0.44
102 | VWLGTEFFVSCLACMLVSVL | -1.05 ± 0.54
103 | RRVGVYDGLRIFS | 0.086 ± 0.93
104 | IIWMSRRSSSLNEKGLKFNY | -0.548 ± 0.29
105 | NDSICIVVLS | -0.009 ± 0.84
106 | SRYWKFRCTFSTKFESTKRS | 3.95 ± 0.17
107 | PFINVLSICLLIWALVPVDS | inactive
108 | PELAGRLSVRDLLW | 0.059 ± 0.47
109 | FFRDSHYIQRDKSQPSRGSN | -0.269 ± 1.1
110 | ISGGLTGKWVFVLGDWWVMF | -0.206 ± 0.74
111 | FLRRIGMGYIRLRVLGSIFL | 0.854 ± 0.49
112 | YLVAVVIGSIPAPSRMYSVA | 0.904 ± 0.51
113 | ILFVG | -0.462 ± 0.42
114 | INYHMVNLNVLAMC | 2.17 ± 0.46
115 | LLISDAVVYLFWTPENHSTW | 1.2 ± 0.56
116 | YGKSYVIDGVVWGRQDSWES | -0.748 ± 1.6
117 | QIIWVIRFLLVCVFTLSKLV | inactive
118 | VTYKEQNGLLLFAPDSVQRD | inactive
119 | AILNRLLSLPSFPVPSSDSQ | 0.466 ± 1.4
120 | EGHARKKEWLTITPRER | 0.261 ± 0.38
121 | HTRNVKTLRVKHSIDVPFLP | 1.41 ± 0.74
122 | YGEPYV | 0.829 ± 0.66
123 | NIIIVNSSVG | 1.49 ± 0.37
124 | LYQCRNDCCYDWMLWYTWRS | 0.505 ± 0.34
125 | VDSVLIWIMFAAMGSKCPG | 1.77 ± 0.23

Row | Substance | amyloid nucleation score
126 | AWRDTDVASSVICG | 0.932 ± 0.97
127 | AIVTSGNRE | -0.015 ± 0.51
128 | RLLVFQSCKFVRGTSLCLVT | 3.66 ± 0.069
129 | ESLFLVCRPRRQVFIVSCRS | -0.716 ± 0.38
130 | NNVRVDKACGEAMEDEKRVV | 0.672 ± 0.37
131 | HPIGSDSPHSVFMVSCVSLQ | 1.68 ± 0.28
132 | FANLVYGQLRVNDTLVSCT | -0.044 ± 0.33
133 | LAEWRLYLRRTVWYLRILIR | -0.066 ± 1
134 | EMTCAWDGNELLFKQRRTIR | inactive
135 | MRDLK | -0.405 ± 0.53
136 | MPCHAFAKMFVQSEFSGSVC | 0.498 ± 0.97
137 | PPTGTLSRHVRSSVQGMGVA | inactive
138 | SNQSDLMLLMENMIDYMKSL | 1.32 ± 0.39
139 | LGFVDISGSYEVLGGYPSLR | 0.031 ± 1.2
140 | TLGTSGTSSV | -0.544 ± 0.49
141 | RTEGVET | -0.251 ± 0.58
142 | NVIGISATNASLSLVLISVI | -0.509 ± 0.32
143 | NSWVSINMCNVFGPHCMWTV | 7.21 ± 0.074
144 | DNGFSTQA | -0.11 ± 0.82
145 | ILGRYNNAVLGVGSEQWSVG | 0.287 ± 0.46
146 | EYVVRYSCMWRE | 0.485 ± 1.2
147 | YMIMQLDACFECLTFQGQY | 5.9 ± 0.087
148 | WHEWNSVEWVGRSWTTDFEW | inactive
149 | WDETY | 4.62 ± 0.07
150 | MIMKYLSDVLTRIGHDIFFA | -0.872 ± 1.4

Row | Substance | amyloid nucleation score
151 | WCGVFESGNRPKSQGKGSKW | 0.159 ± 0.55
152 | AGFVYFPMYNKLMELFTRGI | 1.29 ± 0.66
153 | FFCWTCSAINLYRLLGPPMF | 5.67 ± 0.064
154 | AFRRCTKSFIL | -0.427 ± 1.9
155 | FLWVTWYFSTVFYVNWALE | 0.505 ± 0.89
156 | LSLKASDMRIGRYRSDKATF | 1.18 ± 0.79
157 | SSCVTFSYMKSVFRFLPCWW | 1.96 ± 0.092
158 | KVHKLIDNYMLRSRWY | -0.139 ± 0.9
159 | PHAHDTWYGYA | -1.13 ± 2.4
160 | VTRYTLVYFPLSLIRSTPAN | 0.62 ± 0.36
161 | DWVPLKSHISWLSVTRVLIV | 0.636 ± 0.46
162 | GTSKTTGERDWLRPMTRDI | -0.94 ± 2.7
163 | AYFIYVMYG | -1.11 ± 1.1
164 | KYLFFMVFQWS | 0.439 ± 0.84
165 | LLDARWRTYSFRVAMLWGRR | inactive
166 | NLVRLVRIARCSMRSSVGTL | 1.23 ± 0.16
167 | VHTINRTQLYNIH | -0.215 ± 0.65
168 | RMPNGTWSIGRHLVD | 0.384 ± 0.79
169 | MLWSKKGTGNYRYCRTGYTG | 0.322 ± 0.49
170 | YSALVFRYGVISKGDLVTRR | 0.123 ± 0.36
171 | DMTWNKQHFYGCSISYRSGT | 5.99 ± 0.086
